This experiment concerns the target mERK2 9m peptide (synthetic short-chain peptide for CD8-positive T-cell stimulation, …) (mouse). The experiment in a line: cell-based or functional assay.

This passage reports percentage of IFN-γ-producing cells in CD90.1-positive CD8-positive infused T cells of the draining lymph node after stimulation with mERK2 9m peptide (intracellular cytokine staining) results from patent publication US20240398864A1.

Regarding “mutated ERK2-specific T-cell receptor of DUC18 transgenic mice, on CD8-positive T cells (TCR)”, the percentage of IFN-γ-producing cells in CD90.1-positive CD8-positive infused T cells of the draining lymph node after stimulation with mERK2 9m peptide (intracellular cytokine staining) was found to be 80%.
